The text below walks through data of article PMC12612047 (Nature Communications, 2025).

Test [1] has as its target T1, purified, catalytically inactive CNA/B containing CNA_(Trunc+H151Q) (UniProt Q08209 1-391; P63098 1-170, H151Q). Put plainly: fluorescence polarisation. A general note: In fluorescence polarisation assays a small probe gives low polarisation when free and higher when bound to something large.
Target sequence in this assay (Q08209 1-391 H151Q, chain 1 of 2): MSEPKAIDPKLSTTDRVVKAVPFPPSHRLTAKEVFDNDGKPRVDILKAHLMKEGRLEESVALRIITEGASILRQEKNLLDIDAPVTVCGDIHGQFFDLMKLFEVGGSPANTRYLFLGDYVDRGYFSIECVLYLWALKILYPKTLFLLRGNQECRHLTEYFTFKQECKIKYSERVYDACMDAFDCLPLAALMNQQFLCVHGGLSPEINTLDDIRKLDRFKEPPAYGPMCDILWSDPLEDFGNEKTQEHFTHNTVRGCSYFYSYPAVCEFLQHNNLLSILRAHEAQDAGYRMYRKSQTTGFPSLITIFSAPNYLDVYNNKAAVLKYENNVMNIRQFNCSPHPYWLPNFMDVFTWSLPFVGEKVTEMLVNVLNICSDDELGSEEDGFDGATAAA
Target sequence in this assay (P63098 whole entry, chain 2 of 2): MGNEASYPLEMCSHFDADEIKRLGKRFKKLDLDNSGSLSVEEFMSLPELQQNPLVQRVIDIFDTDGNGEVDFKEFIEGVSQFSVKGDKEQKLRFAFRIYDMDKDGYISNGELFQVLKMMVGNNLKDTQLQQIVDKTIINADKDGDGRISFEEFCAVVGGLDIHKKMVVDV
Test [2] concerns the target T1, purified, catalytically inactive CNA/B …. Kind of test: NMR titration.

For the molecule SHDEAPVLNDKHLDVPDIIITPPTPTGMML [CLMBWT peptide (residues 21-50), not phosphorylated, unlabeled], the binding result in test [1] is “binds”.

SHDEAPVLNDKHADAPDIIITPPTPTGMML (phosphothreonine at 44) [pCLMB_(LxVMut) peptide (residues 21-50, pThr44), unlabeled]: the binding result in test [1] is “binds”.

B1: full-length CLMB (76 residues) expressed in E. coli (natural protein)
chain: MGLKMSCLKGFQMCVSSSSSSHDEAPVLNDKHLDVPDIIITPPTPTGMMLPRDLGSTVWLDETGSCPDDGEIDPEA
modifications: uniformly ^15N-labeled in the NMR titrations; not phosphorylated
For B1, the binding result in test [2] is given as “binds”.
